Data as given in the DeepSol protein solubility set.

Assay: soluble on expression in E. coli; label from the status in PepcDB or PDB records

Sequence | soluble on expression in E. coli
MCSKQSANQQISYRQTAEATLDKGMDNQPEAPYWFPKQLLKWQLSKDKAAKYNTASVPLAKRIDKWQLPTVNKTQDPKMKVVALSIMNSSTSGNAPRGINTFDANVFSNWQYIDQLVYWGGSAGEGLIVPPTADVIDSAHKNGVPVLGTVFFPQVVSGGKLKWLNDFLKQDADGHFPMADKLVAVAKAYGFDGWFINQETDPEVKSFDSASTGKTATSSTSNGLSKKHAQLMQQLIKEYKQKAGSKLDLMWYDSMTKDGKMDWQNALTKENQSYLVDANMKPVADSMFLNFWWTKKRLASQELLKKSHERAEKLGISPYNLFAGIDVQADGTATPVRWNLFANKQHVPYTSLGLYAPDWTHASSDTVDEFQAKEGALWVNLEHHHHHH | soluble
MGSDKIHHHHHHMAILERKIIHEIDTSCSHIIYPQFVLPRHKHAEYEIMLFTQGSGKQFVGEGVADFQEGDIALIGSNVPHLHLCNSKLNPVANTVCSAGEALQFLPDIFPVHIENLPDYQEIYRLLRKSQYGVRFYDKGLYDEVKELFQEMDLLKHTNRLITILRILGRLTECRNIKLLSDVAYNGSNRLLEVNEPVNKVYTYLFNHFKEKVLLQEVADYVKQNPSALCRYFKQRTDKSIFQCLAEIRIEHACKLLSYSNLSVSQIAFESGFNSVPYFIKQFQSITEKTPGEYRELIGR | not soluble
MKERMQKTSAQAHDFPQRARTESEWYEGVQTFMWMTEDNIVEVPFDKEHLLEIILSPSNLNKAYKAVVRNNGSGGIDKMSCEQLLSWLKANKDELIISLQSGTYRPNPVRRVEIPKDNGKKRLLGIPTVVDRLVQQAINQVLTLIYERQFSKTSYGFRPQRGCHDALRKAQKIVSEGYIYVVDLDLERFFDTVSHSKLIEILSRTIKDGRVISLIHKYLRSGVINRGMFEMSTEGTPQGGPLSPLLSNIMLNELDKELERRGHPFVRYADDAMIFCKSKRAAKRVRESITLFIEGKLFLKVNHEKTVVSYVKGVKFLGYSFYVKKGDCILLVHSKSKNKMKSKLKELTSRSNGWGYEKRKQKLKDYIRGWIAYFCLAQMKRLCIETDEWLRRRIRMCIWKSWKNAKTRVANLKKCGVSEWQAYQWGNTRLGYWRVSNSPIVTFVMSNDKLRKAGYMEFMDCYLKWCPK | not soluble
MGNNQSGGPDARYGGPNDKAGLRRHRMMSETAKIAGQVLPNPDGGPPMIFDDGNEDKSGECPVVFRWSFTQNAQPRVVHIVGSWDNWQTRIPMVKSTNDFSTIIDLQPGQYEYKFQVDGSWVVDDNQGKAQDVHGNENNMINIQDSDFAVFEALDEDFQSSTAGEVLRGESESTKNHDTPNDRELEKLRSFTQEIPSMDMLRKAAGPPVIPPQLMQVLLNKETPESCDPNVLPEPNHVMLNHMYALSIKDSVMVLSSTQRYRKKFVTTLLYKPV | not soluble
MDLELEPTLESIVQHDSLKWIFVGGKGGVGKTTTSSSVAVQLALAQPNEQFLLISTDPAHNLSDAFCQKFGKDARKVEGLPNLSCMEIDPEAAMSDLQQQASQYNNDPNDPLKSMMSDMTGSIPGIDEALSFMEVLKHIKNQKVLEGEDNSNAISYKTIIFDTAPTGHTLRFLQLPSTLEKLLSKFKDLSGKLGPMLSMMGGGQQQDIFEKLNEVQKNVSEVNEQFTNPELTTFICVCISEFLSLYETERMIQELMSYNMDVNSIVVNQLLFAEGDDHSCKRCESRWKMQKKYLDQMGELYEDYHLVKMPLLGCEIRGVENLKKFSKFLLKPYDPKADSDIVFDLEEK | soluble
MDFKASGTKFKKTGKKVVPAKAFEEIVQTNRDVLKKSAFLSDLLENLQPHLNNIKKIRCVAIGNFKEDFPATYQFALLLEITDYIKSEDERDVVVSLYDPIFTKEEIQYLKSLGSKWLIEEEFSENDAIDYESVLYFLPHAPLDLTENILSSQRPHLWLANNMISHTDRYTKAKLCENYPNLSKLVHYLQTNAPPEVKKAHDVDGFATFIPKRKRKNRNNSSKLKVTPSDIDYDSIAPKFKSCQILTDFDEGKYLKEKPWINSFSDLTLHAIEY | not soluble
DVQLQQSGPGLVAPSQSLSITCTVSGFSLTDYGVNWVRQSPGKGLEWLGVIWGDGITDYNSALKSRLSVTKDNSKSQVFLKMNSLQSGDSARYYCVTGLFDYWGQGTTLTVSSASGADHHHHHH | soluble
